Normalised SPOT signal, Boehringer light units (BLU); mean over the file's lines of this peptide data for 19 molecules are collected here from paper PMC314469, “Protein Interaction Networks by Proteome Peptide Scanning” (PLoS Biology, 2004).

Holding throughout (test): SPOT array
The target of experiment [1] is T1, Boi1 SH3 (BOI1_YEAST), P38041.
T1 chain: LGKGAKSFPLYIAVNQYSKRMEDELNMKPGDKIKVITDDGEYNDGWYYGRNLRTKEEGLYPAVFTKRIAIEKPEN

The target in experiment [2] is T2, Boi2 SH3 (BOI2_YEAST), P39969.
T2 chain: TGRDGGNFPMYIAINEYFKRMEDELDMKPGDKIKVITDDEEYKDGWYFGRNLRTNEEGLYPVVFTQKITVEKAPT

In experiment [3] the target is T3, Rvs167 SH3 (RV167_YEAST), P39743.
T3 chain: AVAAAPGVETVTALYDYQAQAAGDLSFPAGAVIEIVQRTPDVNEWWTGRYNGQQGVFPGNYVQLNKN

Experiment [4] concerns the target T4, Yfr024 SH3 (LSB3_YEAST), P43603.
T4 chain: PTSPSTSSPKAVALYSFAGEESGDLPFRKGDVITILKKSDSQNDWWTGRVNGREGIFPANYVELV

Experiment [5] addresses T5, Yhr016c SH3 (YSC84_YEAST), P32793.
T5 chain: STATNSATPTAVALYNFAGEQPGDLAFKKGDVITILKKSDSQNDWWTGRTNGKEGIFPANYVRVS

B1: YOR243C 86-99 (peptide)
chain: FKMPKKPQRSKEEV
Consider B1, for which the normalised SPOT signal, Boehringer light units (BLU); mean over the file's lines of this peptide in experiment [1] was found to be 97.7; in experiment [2] it was 244; in experiment [3] it was 166; in experiment [4], 7880; in experiment [5], 2660.

B2: YHL028W 526-539 (peptide)
chain: FHDPILPRRTSTFL
B2: the normalised SPOT signal, Boehringer light units (BLU); mean over the file's lines of this peptide in experiment [1] came to 9870; in experiment [2], 87.1; in experiment [3], 6840; in experiment [4], 44800; in experiment [5], 42100.

B3: YOR070C 179-192 (peptide)
chain: FGTPVAPTRTLSRK
Regarding B3, the normalised SPOT signal, Boehringer light units (BLU); mean over the file's lines of this peptide in experiment [1] was found to be 3280; in experiment [2] it was 308; in experiment [3] it was 398; in experiment [4] it was 5160; in experiment [5], 269.

B4: YBR108W 587-600 (peptide)
chain: FLPPPKPFRHTETK
With B4, the normalised SPOT signal, Boehringer light units (BLU); mean over the file's lines of this peptide stood at 295 in experiment [1]; 67.3 in experiment [2]; 1190 in experiment [3]; 36400 in experiment [4]; 25000 in experiment [5].

B5: YER066C-A 112-125 (peptide)
chain: FFHPAIPLKNAAPF
Consider B5, for which the normalised SPOT signal, Boehringer light units (BLU); mean over the file's lines of this peptide amounted to 154 in experiment [1]; 9.4 in experiment [2]; 22.5 in experiment [3]; 298 in experiment [4]; 288 in experiment [5].

B6: YBR098W 196-209 (peptide)
chain: FDFPLSPVKHENPT
Take B6: the normalised SPOT signal, Boehringer light units (BLU); mean over the file's lines of this peptide is 70.3 in experiment [1]; 2.4 in experiment [2]; 28.7 in experiment [3]; 53 in experiment [4]; 135 in experiment [5].

B7: YMR128W 865-878 (peptide)
chain: FPFPTPPDRVALSK
On to B7, for which the normalised SPOT signal, Boehringer light units (BLU); mean over the file's lines of this peptide turned out to be 52.4 in experiment [1]; 103 in experiment [2]; 114 in experiment [3]; 834 in experiment [4]; 358 in experiment [5].

B8: YAL051W 375-388 (peptide)
chain: FPDPNNPSKVQIRM
As for B8, the normalised SPOT signal, Boehringer light units (BLU); mean over the file's lines of this peptide came to 103 in experiment [1]; 21.5 in experiment [2]; 28 in experiment [3]; 98.1 in experiment [4]; 122 in experiment [5].

B9: YMR035W 79-92 (peptide)
chain: FKAPTNPRKVYSKR
For B9, the normalised SPOT signal, Boehringer light units (BLU); mean over the file's lines of this peptide in experiment [1] came out at 80.9; in experiment [2], 38.8; in experiment [3] it was 33.7; in experiment [4] it was 267; in experiment [5], 143.

B10: YLR399C 173-186 (peptide)
chain: FLQPVDPVKLDIPF
For B10, the normalised SPOT signal, Boehringer light units (BLU); mean over the file's lines of this peptide in experiment [1] stood at 92.6; in experiment [2], 24.4; in experiment [3], 56.8; in experiment [4], 0; in experiment [5], 117.

B11: YGR068C 471-484 (peptide)
chain: FISPHLPMKGRLVL
Consider B11, for which the normalised SPOT signal, Boehringer light units (BLU); mean over the file's lines of this peptide in experiment [1] amounted to 231; in experiment [2] it was 20.4; in experiment [3], 68.3; in experiment [4], 1540; in experiment [5] it was 301.

B12: YML005W 163-176 (peptide)
chain: FLSPGKPSKGTSLH
As to B12, the normalised SPOT signal, Boehringer light units (BLU); mean over the file's lines of this peptide in experiment [1] stood at 96.5; in experiment [2], 34.6; in experiment [3], 58.9; in experiment [4], 437; in experiment [5], 243.

B13: YGL177W 74-87 (peptide)
chain: FSHPLSPLKSNFID
Regarding B13, the normalised SPOT signal, Boehringer light units (BLU); mean over the file's lines of this peptide in experiment [1] was 61.5; in experiment [2] it was 44.1; in experiment [3], 91.8; in experiment [4], 217; in experiment [5], 0.

B14: YGL131C 440-453 (peptide)
chain: FPYPFKPSRVGVKY
Regarding B14, the normalised SPOT signal, Boehringer light units (BLU); mean over the file's lines of this peptide in experiment [1] was determined as 178; in experiment [2], 81.9; in experiment [3], 118; in experiment [4], 2790; in experiment [5], 260.

B15: YNL286W 148-161 (peptide)
chain: FNGPEPPIKRLKKA
Regarding B15, the normalised SPOT signal, Boehringer light units (BLU); mean over the file's lines of this peptide stood at 255 in experiment [1]; 11.4 in experiment [2]; 70.5 in experiment [3]; 625 in experiment [4]; 42.4 in experiment [5].

B16: YPR045C 291-304 (peptide)
chain: FENPTIPKKSYSEF
As for B16, the normalised SPOT signal, Boehringer light units (BLU); mean over the file's lines of this peptide in experiment [1] was 78.2; in experiment [2] it was 55.1; in experiment [3], 47.2; in experiment [4], 50.5; in experiment [5], 43.7.

B17: YIL105C 444-457 (peptide)
chain: FLLPNLPMRTFKEI
In the case of B17, the normalised SPOT signal, Boehringer light units (BLU); mean over the file's lines of this peptide was found to be 218 in experiment [1]; 66.4 in experiment [2]; 8120 in experiment [3]; 15300 in experiment [4]; 8100 in experiment [5].

B18: YLR128W 194-207 (peptide)
chain: FFQPEYPVRMEPDL
Consider B18, for which the normalised SPOT signal, Boehringer light units (BLU); mean over the file's lines of this peptide was determined as 57.9 in experiment [1]; 76 in experiment [2]; 0 in experiment [3]; 1060 in experiment [4]; 210 in experiment [5].

B19: YPL269W 491-504 (peptide)
chain: FFDPESPNKGKLIL
As for B19, the normalised SPOT signal, Boehringer light units (BLU); mean over the file's lines of this peptide in experiment [1] is 63.1; in experiment [2], 149; in experiment [3], 61.6; in experiment [4], 68; in experiment [5] it was 129.
